Data as given in patent US20140087995A1 (published 2014).
Numbered stars: 1 amine (or outer) side, 2 acyl side, 3 side chain; on linkers, the order of the positions; unused ones are H or OH. Bridge positions count the residues as written; N and C are the ends. Side chains are listed from the residue outwards. Ends that are not written are not given here. * marks the point of attachment. C20 diacid = O=C(O)CCCCCCCCCCCCCCCCCCC(=O)*; γGlu = O=C(O)[C@H](CCC(=O)[*:2])N[*:1]

T1: rat amylin receptor (rat calcitonin receptor + rat RAMP 3) (rat, UniProt P32214 25-516; Q9JJ73 23-147)
T1 construct: whole, on cells; Membranes of BHK tk'ts 13 cells transiently transfected with the rat calcitonin receptor and rat RAMP 3; also called rAmylin-R; rat amylin 3(a) receptor
T1 sequence (looked up) 1: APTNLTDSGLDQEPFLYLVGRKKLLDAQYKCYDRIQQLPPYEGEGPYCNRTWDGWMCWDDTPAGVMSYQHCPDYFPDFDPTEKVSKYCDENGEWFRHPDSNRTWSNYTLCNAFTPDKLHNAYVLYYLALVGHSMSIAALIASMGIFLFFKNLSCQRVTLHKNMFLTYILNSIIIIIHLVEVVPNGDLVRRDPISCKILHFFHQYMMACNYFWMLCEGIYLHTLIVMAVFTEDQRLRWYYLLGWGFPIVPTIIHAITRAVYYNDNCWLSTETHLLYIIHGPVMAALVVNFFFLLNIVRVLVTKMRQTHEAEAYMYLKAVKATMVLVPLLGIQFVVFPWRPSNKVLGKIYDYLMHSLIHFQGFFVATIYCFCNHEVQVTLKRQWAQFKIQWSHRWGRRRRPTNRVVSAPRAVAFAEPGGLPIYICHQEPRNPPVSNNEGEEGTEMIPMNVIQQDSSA
T1 sequence (looked up) 2: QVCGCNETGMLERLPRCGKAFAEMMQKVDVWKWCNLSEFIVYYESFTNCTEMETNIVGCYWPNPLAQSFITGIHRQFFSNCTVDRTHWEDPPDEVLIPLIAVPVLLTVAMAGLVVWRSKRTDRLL

T2: human calcitonin receptor (human, UniProt P30988 25-474)
T2 construct: whole, on cells; Membranes of a BHK tk'ts 13 cell line stably transfected with the human calcitonin receptor; also called hCTR; hCT
T2 sequence (looked up): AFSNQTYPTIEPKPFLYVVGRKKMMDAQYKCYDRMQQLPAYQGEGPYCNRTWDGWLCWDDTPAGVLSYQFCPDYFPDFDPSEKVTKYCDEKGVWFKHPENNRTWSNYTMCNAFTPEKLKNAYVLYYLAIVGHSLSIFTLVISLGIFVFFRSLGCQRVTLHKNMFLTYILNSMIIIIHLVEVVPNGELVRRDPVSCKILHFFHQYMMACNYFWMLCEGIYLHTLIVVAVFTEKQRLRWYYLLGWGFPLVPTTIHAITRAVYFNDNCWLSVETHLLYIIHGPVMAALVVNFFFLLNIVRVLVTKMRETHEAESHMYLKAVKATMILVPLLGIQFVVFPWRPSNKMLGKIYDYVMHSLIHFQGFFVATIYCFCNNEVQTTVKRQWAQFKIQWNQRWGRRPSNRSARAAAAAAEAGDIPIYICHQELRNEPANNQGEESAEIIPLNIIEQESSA

T3: rat calcitonin receptor (rat, UniProt P32214 25-516)
T3 construct: whole, on cells; Membranes of BHK tk'ts 13 cells transiently transfected with the rat calcitonin receptor; also called rCTR; rat calcitonin (a) receptor
T3 sequence (looked up): T1 sequence (looked up) 1

B1: N^ε1-[(4S)-4-carboxy-4-(19-carboxynonadecanoylamino)butanoyl]-[Arg17,Pro21,Pro27,Glu35]-h-amylin (peptide)
peptide: K([γGlu-C20 diacid])CNTATCATQRLANFLRHSSPNFGAIPSSTNVGSETY-NH2
modifications: disulfide 2-7; N-terminus assumed
SMILES: CC[C@H](C)[C@H](NC(=O)[C@H](C)NC(=O)CNC(=O)[C@H](Cc1ccccc1)NC(=O)[C@H](CC(N)=O)NC(=O)[C@@H]1CCCN1C(=O)[C@H](CO)NC(=O)[C@H](CO)NC(=O)[C@H](Cc1c[nH]cn1)NC(=O)[C@H](CCCNC(=N)N)NC(=O)[C@H](CC(C)C)NC(=O)[C@H](Cc1ccccc1)NC(=O)[C@H](CC(N)=O)NC(=O)[C@H](C)NC(=O)[C@H](CC(C)C)NC(=O)[C@H](CCCNC(=N)N)NC(=O)[C@H](CCC(N)=O)NC(=O)[C@@H](NC(=O)[C@H](C)NC(=O)[C@@H]1CSSC[C@H](NC(=O)[C@@H](N)CCCCNC(=O)CC[C@H](NC(=O)CCCCCCCCCCCCCCCCCCC(=O)O)C(=O)O)C(=O)N[C@@H](CC(N)=O)C(=O)N[C@@H]([C@@H](C)O)C(=O)N[C@@H](C)C(=O)N[C@@H]([C@@H](C)O)C(=O)N1)[C@@H](C)O)C(=O)N1CCC[C@H]1C(=O)N[C@@H](CO)C(=O)N[C@@H](CO)C(=O)N[C@H](C(=O)N[C@@H](CC(N)=O)C(=O)N[C@H](C(=O)NCC(=O)N[C@@H](CO)C(=O)N[C@@H](CCC(=O)O)C(=O)N[C@H](C(=O)N[C@@H](Cc1ccc(O)cc1)C(N)=O)[C@@H](C)O)C(C)C)[C@@H](C)O
notes: modifications are with respect to human amylin; also called compound 27
B2: N^ε1-[(4S)-4-carboxy-4-(19-carboxynonadecanoylamino)butanoyl]-[Arg17,Pro21,Pro27,Lys35]-h-amylin (peptide)
peptide: K([γGlu-C20 diacid])CNTATCATQRLANFLRHSSPNFGAIPSSTNVGSKTY-NH2
modifications: disulfide 2-7; N-terminus assumed
SMILES: CC[C@H](C)[C@H](NC(=O)[C@H](C)NC(=O)CNC(=O)[C@H](Cc1ccccc1)NC(=O)[C@H](CC(N)=O)NC(=O)[C@@H]1CCCN1C(=O)[C@H](CO)NC(=O)[C@H](CO)NC(=O)[C@H](Cc1c[nH]cn1)NC(=O)[C@H](CCCNC(=N)N)NC(=O)[C@H](CC(C)C)NC(=O)[C@H](Cc1ccccc1)NC(=O)[C@H](CC(N)=O)NC(=O)[C@H](C)NC(=O)[C@H](CC(C)C)NC(=O)[C@H](CCCNC(=N)N)NC(=O)[C@H](CCC(N)=O)NC(=O)[C@@H](NC(=O)[C@H](C)NC(=O)[C@@H]1CSSC[C@H](NC(=O)[C@@H](N)CCCCNC(=O)CC[C@H](NC(=O)CCCCCCCCCCCCCCCCCCC(=O)O)C(=O)O)C(=O)N[C@@H](CC(N)=O)C(=O)N[C@@H]([C@@H](C)O)C(=O)N[C@@H](C)C(=O)N[C@@H]([C@@H](C)O)C(=O)N1)[C@@H](C)O)C(=O)N1CCC[C@H]1C(=O)N[C@@H](CO)C(=O)N[C@@H](CO)C(=O)N[C@H](C(=O)N[C@@H](CC(N)=O)C(=O)N[C@H](C(=O)NCC(=O)N[C@@H](CO)C(=O)N[C@@H](CCCCN)C(=O)N[C@H](C(=O)N[C@@H](Cc1ccc(O)cc1)C(N)=O)[C@@H](C)O)C(C)C)[C@@H](C)O
notes: modifications are with respect to human amylin; also called compound 35
B3: N^ε1-[(4S)-4-carboxy-4-[[(4S)-4-carboxy-4-(19-carboxynonadecanoylamino)butanoyl]amino]butanoyl]-[Asp14,Arg17,Pro21,Pro26,Asp35]-h-amylin (peptide)
peptide: K([γGlu-γGlu-C20 diacid])CNTATCATQRLADFLRHSSPNFGAPLSSTNVGSDTY-NH2
modifications: disulfide 2-7; N-terminus assumed
SMILES: CC(C)C[C@H](NC(=O)[C@H](CCCNC(=N)N)NC(=O)[C@H](CCC(N)=O)NC(=O)[C@@H](NC(=O)[C@H](C)NC(=O)[C@@H]1CSSC[C@H](NC(=O)[C@@H](N)CCCCNC(=O)CC[C@H](NC(=O)CC[C@H](NC(=O)CCCCCCCCCCCCCCCCCCC(=O)O)C(=O)O)C(=O)O)C(=O)N[C@@H](CC(N)=O)C(=O)N[C@@H]([C@@H](C)O)C(=O)N[C@@H](C)C(=O)N[C@@H]([C@@H](C)O)C(=O)N1)[C@@H](C)O)C(=O)N[C@@H](C)C(=O)N[C@@H](CC(=O)O)C(=O)N[C@@H](Cc1ccccc1)C(=O)N[C@@H](CC(C)C)C(=O)N[C@@H](CCCNC(=N)N)C(=O)N[C@@H](Cc1c[nH]cn1)C(=O)N[C@@H](CO)C(=O)N[C@@H](CO)C(=O)N1CCC[C@H]1C(=O)N[C@@H](CC(N)=O)C(=O)N[C@@H](Cc1ccccc1)C(=O)NCC(=O)N[C@@H](C)C(=O)N1CCC[C@H]1C(=O)N[C@@H](CC(C)C)C(=O)N[C@@H](CO)C(=O)N[C@@H](CO)C(=O)N[C@H](C(=O)N[C@@H](CC(N)=O)C(=O)N[C@H](C(=O)NCC(=O)N[C@@H](CO)C(=O)N[C@@H](CC(=O)O)C(=O)N[C@H](C(=O)N[C@@H](Cc1ccc(O)cc1)C(N)=O)[C@@H](C)O)C(C)C)[C@@H](C)O
notes: modifications are with respect to human amylin; also called compound 1
B4: N^ε1-[(4S)-4-carboxy-4-[[(4S)-4-carboxy-4-(19-carboxynonadecanoylamino)butanoyl]amino]butanoyl]-[Asp14,Arg17,Pro21,Pro27,Asp35]-h-amylin (peptide)
peptide: K([γGlu-γGlu-C20 diacid])CNTATCATQRLADFLRHSSPNFGAIPSSTNVGSDTY-NH2
modifications: disulfide 2-7; N-terminus assumed
SMILES: CC[C@H](C)[C@H](NC(=O)[C@H](C)NC(=O)CNC(=O)[C@H](Cc1ccccc1)NC(=O)[C@H](CC(N)=O)NC(=O)[C@@H]1CCCN1C(=O)[C@H](CO)NC(=O)[C@H](CO)NC(=O)[C@H](Cc1c[nH]cn1)NC(=O)[C@H](CCCNC(=N)N)NC(=O)[C@H](CC(C)C)NC(=O)[C@H](Cc1ccccc1)NC(=O)[C@H](CC(=O)O)NC(=O)[C@H](C)NC(=O)[C@H](CC(C)C)NC(=O)[C@H](CCCNC(=N)N)NC(=O)[C@H](CCC(N)=O)NC(=O)[C@@H](NC(=O)[C@H](C)NC(=O)[C@@H]1CSSC[C@H](NC(=O)[C@@H](N)CCCCNC(=O)CC[C@H](NC(=O)CC[C@H](NC(=O)CCCCCCCCCCCCCCCCCCC(=O)O)C(=O)O)C(=O)O)C(=O)N[C@@H](CC(N)=O)C(=O)N[C@@H]([C@@H](C)O)C(=O)N[C@@H](C)C(=O)N[C@@H]([C@@H](C)O)C(=O)N1)[C@@H](C)O)C(=O)N1CCC[C@H]1C(=O)N[C@@H](CO)C(=O)N[C@@H](CO)C(=O)N[C@H](C(=O)N[C@@H](CC(N)=O)C(=O)N[C@H](C(=O)NCC(=O)N[C@@H](CO)C(=O)N[C@@H](CC(=O)O)C(=O)N[C@H](C(=O)N[C@@H](Cc1ccc(O)cc1)C(N)=O)[C@@H](C)O)C(C)C)[C@@H](C)O
notes: modifications are with respect to human amylin; also called compound 2

molecular target: T1, rat amylin receptor (rat calcitonin …); test: SPA competition vs 125I-rat amylin, membranes with rat CTR + rat RAMP3 (Assay VI)

Row | Binder | IC50
1 | B1 | 0.614 nM
2 | B2 | 0.948 nM
3 | B3 | 1.3 nM
4 | B4 | 0.295 nM

molecular target: T2, human calcitonin receptor; test: IC50 at hCTR divided by IC50 at hAmylin-R (reference)
Outline: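 Competition binding by SPA with cell membranes (35 ng/μL) and SPA beads in 50 mM Hepes pH 7.4 with 1 mM CaCl2, 5 mM MgCl2, 0.1% OA and 0.02% Tween20. Incubated 120 min at 25 °C with shaking, then counted.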

Row | Binder | Ratio hCT/hAmylin binding
5 | B1 | 41.3
6 | B2 | 50.3
7 | B3 | 27.6
8 | B4 | 47.5

molecular target: T3, rat calcitonin receptor; test: IC50 at rCTR divided by IC50 at rAmylin-R (reference)

Row | Binder | Ratio rCT/rAmylin binding
9 | B1 | 147
10 | B2 | 65.1
11 | B3 | 104
12 | B4 | 366

molecular target: T3, rat calcitonin receptor; test: SPA competition vs 125I-calcitonin, membranes with rat CTR (Assay VIII)

Row | Binder | IC50
13 | B1 | 90.2 nM
14 | B2 | 61.7 nM
15 | B3 | 135 nM
16 | B4 | 108 nM
